Test results published in patent US20100260765A1 (AstraZeneca / MedImmune, published 2010).

What was measured:
[1] = target: T1, soluble KDR extracellular domain (ECD) (Calbiochem) (human, UniProt P35968 20-764); experiment: High Antigen ELISA, KDR coat 500 ng/mL, supernatant 1:225
T1 construct: extracellular domain; Bought protein; also called KDR-ECD; VEGF Receptor 2 D1-7, Cat. #676490
Description: (§1) ELISA plates were coated with a greater amount of KDR (at 500 ng/mL) in comparison with the Limited Antigen Quantitation assay described below. Sample containing antibody (Ab) was titrated on the KDR-coated ELISA plates and was incubated overnight at 4° C. to allow Ab binding to approach equilibrium. Titration of Ab in sample covered a dilution range of 1:25 to 1:18,225. A standard curve of KDR-specific antibody of known concentration was used to define the linear range of the assay. Data within the linear range were used to derive the relative concentration of KDR-specific Ab in each titrated sample. The high KDR concentration and the overnight incubation limited the effect of Ab affinity, allowing quantitation of the relative amount of KDR-specific Ab present in each sample.

[2] = target: T1, soluble KDR extracellular domain (ECD) …; experiment: High Antigen ELISA, KDR coat 500 ng/mL, supernatant 1:18,225
Description: as §1

[3] = target: T1, soluble KDR extracellular domain (ECD) …; experiment: Limited Antigen ELISA, KDR coat 50 ng/mL, supernatant 1:25
Description: (§2) Samples containing one concentration of antibody (Ab) (1:25 dilution) were incubated overnight to allow Ab binding to approach equilibrium. The low antigen concentration limited the effect of antibody concentration, allowing ranking of the antibodies based on their relative affinity.

[4] = target: T1, soluble KDR extracellular domain (ECD) …; experiment: High Antigen ELISA, KDR coat 500 ng/mL, supernatant 1:2025
Description: as §1

[5] = target: T1, soluble KDR extracellular domain (ECD) …; experiment: High Antigen ELISA, KDR coat 500 ng/mL, supernatant 1:75
Description: as §1

[6] = target: T1, soluble KDR extracellular domain (ECD) …; experiment: Limited Antigen ELISA, KDR coat 3.125 ng/mL, supernatant 1:25
Description: as §2

[7] = target: T1, soluble KDR extracellular domain (ECD) …; experiment: Limited Antigen ELISA, KDR coat 6.25 ng/mL, supernatant 1:25
Description: as §2

[8] = target: T1, soluble KDR extracellular domain (ECD) …; experiment: High Antigen ELISA, KDR coat 500 ng/mL, supernatant 1:6075
Description: as §1

[9] = target: T1, soluble KDR extracellular domain (ECD) …; experiment: Limited Antigen ELISA, KDR coat 12.5 ng/mL, supernatant 1:25
Description: as §2

[10] = target: KDR endogenously expressed on human umbilical vein endothelial cells (HUVEC) (human, UniProt P35968 20-1356); experiment: cell-based or functional assay
Chain of KDR endogenously expressed on human umbilical vein endothelial cells (HUVEC) (P35968 20-1356): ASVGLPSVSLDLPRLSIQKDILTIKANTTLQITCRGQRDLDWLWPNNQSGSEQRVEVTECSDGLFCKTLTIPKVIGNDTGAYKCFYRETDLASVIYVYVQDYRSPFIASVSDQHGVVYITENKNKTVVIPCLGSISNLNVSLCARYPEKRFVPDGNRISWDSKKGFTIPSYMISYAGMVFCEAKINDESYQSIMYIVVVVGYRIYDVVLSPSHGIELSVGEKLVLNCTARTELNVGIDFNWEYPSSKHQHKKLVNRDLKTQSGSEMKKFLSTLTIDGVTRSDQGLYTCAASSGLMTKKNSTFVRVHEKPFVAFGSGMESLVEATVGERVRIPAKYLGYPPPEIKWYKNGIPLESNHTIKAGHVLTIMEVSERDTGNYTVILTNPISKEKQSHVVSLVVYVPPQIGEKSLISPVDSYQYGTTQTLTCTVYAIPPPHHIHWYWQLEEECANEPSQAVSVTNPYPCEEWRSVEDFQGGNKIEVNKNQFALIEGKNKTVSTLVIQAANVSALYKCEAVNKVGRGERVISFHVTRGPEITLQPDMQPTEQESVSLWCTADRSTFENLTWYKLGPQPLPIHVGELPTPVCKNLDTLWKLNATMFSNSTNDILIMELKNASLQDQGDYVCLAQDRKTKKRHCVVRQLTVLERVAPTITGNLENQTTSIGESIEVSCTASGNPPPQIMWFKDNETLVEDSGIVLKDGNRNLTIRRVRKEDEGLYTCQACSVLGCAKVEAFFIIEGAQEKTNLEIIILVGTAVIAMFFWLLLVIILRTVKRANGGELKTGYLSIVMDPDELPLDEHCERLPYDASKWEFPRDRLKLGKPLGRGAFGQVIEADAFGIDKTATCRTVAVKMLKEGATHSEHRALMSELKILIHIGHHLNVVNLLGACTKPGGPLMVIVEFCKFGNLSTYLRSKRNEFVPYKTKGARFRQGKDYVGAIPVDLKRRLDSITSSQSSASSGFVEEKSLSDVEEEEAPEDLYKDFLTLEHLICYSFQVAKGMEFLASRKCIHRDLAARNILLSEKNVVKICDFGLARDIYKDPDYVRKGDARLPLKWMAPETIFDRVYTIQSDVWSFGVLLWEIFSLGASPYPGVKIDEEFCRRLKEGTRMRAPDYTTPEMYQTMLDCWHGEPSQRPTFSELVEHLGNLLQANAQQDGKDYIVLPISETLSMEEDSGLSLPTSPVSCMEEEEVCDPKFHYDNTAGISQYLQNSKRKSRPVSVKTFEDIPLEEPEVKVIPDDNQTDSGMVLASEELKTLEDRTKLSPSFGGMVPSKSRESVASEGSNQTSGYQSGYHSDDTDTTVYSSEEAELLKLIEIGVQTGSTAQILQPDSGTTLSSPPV

[11] = target: T1, soluble KDR extracellular domain (ECD) …; experiment: High Antigen ELISA, KDR coat 500 ng/mL, supernatant 1:25
Description: as §1

[12] = target: T1, soluble KDR extracellular domain (ECD) …; experiment: High Antigen ELISA, KDR coat 500 ng/mL, supernatant 1:675
Description: as §1

[13] = target: T1, soluble KDR extracellular domain (ECD) …; experiment: Limited Antigen ELISA, KDR coat 25 ng/mL, supernatant 1:25
Description: as §2

T1 sequence (P35968 20-764): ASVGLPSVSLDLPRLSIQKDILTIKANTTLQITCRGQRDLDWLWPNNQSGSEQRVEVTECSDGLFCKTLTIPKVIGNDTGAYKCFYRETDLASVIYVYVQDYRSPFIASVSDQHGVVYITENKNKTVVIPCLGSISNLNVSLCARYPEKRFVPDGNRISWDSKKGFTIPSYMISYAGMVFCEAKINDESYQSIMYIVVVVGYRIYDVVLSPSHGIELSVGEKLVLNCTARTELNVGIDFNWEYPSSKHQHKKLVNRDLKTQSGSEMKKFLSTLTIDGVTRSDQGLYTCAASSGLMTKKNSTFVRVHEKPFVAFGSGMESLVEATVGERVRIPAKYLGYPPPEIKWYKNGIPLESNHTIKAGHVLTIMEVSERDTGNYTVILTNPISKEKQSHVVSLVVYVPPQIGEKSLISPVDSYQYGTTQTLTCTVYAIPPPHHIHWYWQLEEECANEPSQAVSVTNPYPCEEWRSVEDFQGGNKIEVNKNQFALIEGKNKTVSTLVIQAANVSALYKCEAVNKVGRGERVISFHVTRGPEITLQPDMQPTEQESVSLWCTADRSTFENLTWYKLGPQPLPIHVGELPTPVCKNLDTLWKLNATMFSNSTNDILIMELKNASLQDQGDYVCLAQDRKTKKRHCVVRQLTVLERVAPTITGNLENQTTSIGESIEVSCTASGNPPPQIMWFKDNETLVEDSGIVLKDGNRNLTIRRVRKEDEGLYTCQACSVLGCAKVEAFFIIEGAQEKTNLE

| Binder | ELISA reading [1] | ELISA reading [2] | ELISA reading [3] | ELISA reading [4] | ELISA reading [5] | ELISA reading [6] | ELISA reading [7] | ELISA reading [8] | ELISA reading [9] | VEGF-E-mediated Survival % Inhibition (Average) [10] [%] | VEGF-E-mediated Survival % Inhibition (n = 1) [10] [%] | VEGF-E-mediated Survival % Inhibition (n = 2) [10] [%] | ELISA reading [11] | ELISA reading [12] | ELISA reading [13] |
| --- | --- | --- | --- | --- | --- | --- | --- | --- | --- | --- | --- | --- | --- | --- | --- |
| 21H9 (antibody, V domains shown, Fully human mAb from XenoMouse hybridoma, tested as hybridoma supernatant) VH: QVPLVESGGGVVQPGRSLRLSCAASGFTFSSYGMHWVRQAPGKGLEWVAVIWYDGSNKYYADSVQGRFTISRDNSKNTLYLQMNSLRAEDTAVYYCARGVTMVRGLIIARYYYGLDVWGQGTTVTVSS VL: DIVMTQTPLSSPVTFGQPASISCRSSQSLVHSDGNTYLSWLQQRPGQPPRLLIYKISNRFFGVPDRFSGSGAGTDFTLKISRVEAEDVGLYYCMQSTQFPLTFGGGTKVEIK | 3.41 | 0.12 | 2.28 | 0.7 | 4.34 | 0.22 | 0.39 | 0.26 | 0.82 | -1 | -3 | 1 | 6 | 1.56 | 1.46 |
| 30D7 (antibody, V domains shown, Fully human mAb from XenoMouse hybridoma, tested as hybridoma supernatant) VH: QVPLVESGGGVVQPGRSLRLSCAASGFTFSSYGMHWVRQAPGKGLEWVAVIWYDGSNKYYADSVKGRFTISRDNSKNTLYLQMNSLRAEDTAVYYCARGVTMVRGVIIARYYYGLDVWGQGTTVTVSS VL: DIVMTQTPLSSPVTLGQPASISCRSSQSLVHSDGNTYLSWLQQRPGQPPRLLIYKISNRFFGVPDRFSGSGAGTDFTLKIGRVEAEDVGLYYCMQSTQFPLTFGGGTKVEIK | 6 | 0.82 | 2.93 | 2.79 | 5.09 | 0.27 | 0.48 | 1.02 | 0.79 | -24 | -27 | -22 | 4.66 | 4.24 | 1.51 |
| 21A1 (antibody, V domains shown, Fully human mAb from XenoMouse hybridoma, tested as hybridoma supernatant) VH: QVQLVESGGGLVKPGGSLRLSCAASGFTFSDYYMSWIRQAPGKGLEWVSYISNSGITIYYADSVKGRFTISRDNAKNSLYLQMNSLRAGDTAVYYCAREEWYSSRWYRNFDYWGQGTLVTVSS VL: DIQMTQFSSSLSASVGDRVTITCRASQSISRYLNWYQQKPGKAPKLLIYAASSLQSGVPSRFNGSGSGTDFTLTISSLQPEDFATYYCQQSYSAPLTFGGGTKVEIK | 4.14 | 0.25 | 2.65 | 1.66 | 4.43 | 0.23 | 0.38 | 0.56 | 0.81 | 42 | 45 | 40 | 4.45 | 3.36 | 1.47 |
| 21H6 (antibody, V domains shown, Fully human mAb from XenoMouse hybridoma, tested as hybridoma supernatant) VH: QVQLVESGGGLVKPGGSLRLSCAASGFTFSDYYMSWIRQAPGKGLEWVSYISNSGITIYYADSVKGRFTISRDNAKNSLYLQMNSLRAGDTAVYYCAREEWYSSRWYRNFDYWGQGTLVTVSS VL: DIQMTQFSSSLSASVGDRVTITCRASQSISRYLNWYQQKPGKAPKLLIYAASSLQSGVPSRFNGSGSGTDFTLTISSLQPEDFATYYCQQSYSAPLTFGGGTKVEIK | 5.57 | 0.54 | 1.83 | 2.91 | 4.19 | 0.15 | 0.23 | 1.17 | 0.52 | 55 | 56 | 53 | 6 | 4.02 | 0.97 |
| 22B8 (antibody, V domains shown, Fully human mAb from XenoMouse hybridoma, tested as hybridoma supernatant) VH: QLQLQESGPGLVKPSETLSLTCTVSGGSISSRYYYWGWVRQPPGKGLEWIGTIYYSGHTYYNPSLKTRVTISVDTSKNQFSLKLISVTAADTAVYYCATQQLVLYYFDFWGQGTLVTVSS VL: EIVLTQSPGTLSLSPGERAALSCRASQSISSSYLAWYQQRPGQAPRLLIYGASSRATGIPDRFNGSGSGTDFTLTISRLEPEDFAVYYCQQFGSSITFGQGTRLEIK | 6 | 0.2 | 3.36 | 1.27 | 6 | 0.21 | 0.42 | 0.31 | 0.91 | 55 | 57 | 53 | 6 | 3.49 | 1.84 |
| 30A1 (antibody, V domains shown, Fully human mAb from XenoMouse hybridoma, tested as hybridoma supernatant) VH: QLQLQESGPGLVKPSETLSLTCTVSGGSISSPNYYWGWIRQPPGKGLEWIGTIYYSGNTFYNPSLKSRVTISVDTSKNQFSLKLSSVTAADTAVYYCATQQLVLYYFDFWGQGTLVTVSS VL: EIVLTQSPGTLSLSPGKRAALSCRASQSISSSYLAWYQQKPGQAPRLLIYGASSRATGIPDRFNGSGSGTDFTLTISRLEPEDFAVYYCQQLGSSITFGQGTRLEIK | 6 | 1.11 | 1.77 | 3.37 | 4.78 | 0.15 | 0.27 | 1.58 | 0.5 | 58 | 58 | 59 | 4.52 | 4.28 | 0.87 |
| 24B3 (antibody, V domains shown, Fully human mAb from XenoMouse hybridoma, tested as hybridoma supernatant) VH: EVQLVESGGGLVKPGGSLRLSCAASGFTFSTYSMNWVRQAPGKGLEWVSFISGRSSYIYYADSVKGRFTISRDNAKNSLYLQMNSLRAEDTAVYYCSKDDWFEELWGQGTLVTVSS VL: DIQMTQSPSSLSASVGDRVTITCRASQGIRSDLGWYQQKPGKAPKRLIYATSSLQSGVPSRFSGSGSGTEFTLTISSLQPEDFATYYCLQHNRYPWTFGQGTKVEIK | 1.16 | 0.08 | 0.38 | 0.31 | 1.58 | 0.07 | 0.08 | 0.13 | 0.12 | 66 | 65 | 66 | 2.33 | 0.79 | 0.21 |
| 1G6 (antibody, V domains shown, Fully human mAb from XenoMouse hybridoma, tested as hybridoma supernatant) VH: EVQLLESGGGLVQPGGSLRLSCAASGFTFSSYAMSWVRQAPGKGLEWVSAISGGGGNTYYADSVKGRFTISRDNSKNTLYLQMNSLRAEDTAVYYCSKVATDYWGQGTLVTVSS VL: QPVLTQSSSASASLGSSVKLTCTLSSGHSSYIIAWHQQQPGKAPRYLMKLEGSGSYNKGSGVPDRFSGSSSGADRYLTISNLQFEDEADYYCETWDSYTVVFGGGTKLTVL | 4.49 | 0.26 | 1.38 | 0.69 | 6 | 0.12 | 0.2 | 0.34 | 0.32 | 2 | -2 | 6 | 6 | 2.24 | 0.65 |
